Measured values from patent US20160271244A1.

What was measured:
[1] = target: deglycosylated JRFL gp140 CF (HIV-1); assay: SPR, MAb on the surface, Env injected; JRFL wt DEG 20 (PNGase 20 U/µg); Koff (x10^-3 s-1)
[2] = target: deglycosylated JRFL gp140 CF (HIV-1); assay: SPR, MAb on the surface, Env injected; JRFL wt DEG 5 (PNGase 5 U/µg); Kon (x10^3 M-1s-1)
[3] = target: Jo 1; assay: Athena autoantigen assay, mAb 50 ug/ml
[4] = target: SSB; assay: Athena autoantigen assay, mAb 50 ug/ml
[5] = target: SSA; assay: Athena autoantigen assay, mAb 50 ug/ml
[6] = target: Histone; assay: Athena autoantigen assay, mAb 50 ug/ml
[7] = target: deglycosylated JRFL gp140 CF (HIV-1); assay: SPR, MAb on the surface, Env injected; JRFL wt DEG 5 (PNGase 5 U/µg); Koff (x10^-3 s-1)
[8] = target: deglycosylated JRFL gp140 CF (HIV-1); assay: SPR, MAb on the surface, Env injected; JRFL wt DEG 20 (PNGase 20 U/µg)
[9] = target: deglycosylated JRFL gp140 CF (HIV-1); assay: SPR, MAb on the surface, Env injected; JRFL wt DEG 500 (PNGase 500 U/µg)
[10] = target: JRFL gp140 (HIV-1); assay: SPR, MAb on the surface, Env injected; JRFFL wt (not deglycosylated); Kon (x10^3 M-1s-1)
[11] = target: Jo 1; assay: Athena autoantigen assay, mAb 6.25 ug/ml
[12] = target: RNP; assay: Athena autoantigen assay, mAb 6.25 ug/ml
[13] = target: SSB; assay: Athena autoantigen assay, mAb 6.25 ug/ml
[14] = target: Sm; assay: Athena autoantigen assay, mAb 6.25 ug/ml
[15] = target: SSA; assay: Athena autoantigen assay, mAb 6.25 ug/ml
[16] = target: Scl 70; assay: Athena autoantigen assay, mAb 6.25 ug/ml
[17] = target: Histone; assay: Athena autoantigen assay, mAb 6.25 ug/ml
[18] = target: Jo 1; assay: Athena autoantigen assay, mAb 12.5 ug/ml
[19] = target: RNP; assay: Athena autoantigen assay, mAb 12.5 ug/ml
[20] = target: SSB; assay: Athena autoantigen assay, mAb 12.5 ug/ml
[21] = target: Sm; assay: Athena autoantigen assay, mAb 12.5 ug/ml
[22] = target: SSA; assay: Athena autoantigen assay, mAb 12.5 ug/ml
[23] = target: Scl 70; assay: Athena autoantigen assay, mAb 12.5 ug/ml
[24] = target: Histone; assay: Athena autoantigen assay, mAb 12.5 ug/ml
[25] = target: JRFL gp140 (HIV-1); assay: SPR, MAb on the surface, Env injected; JRFFL wt (not deglycosylated)
[26] = target: deglycosylated JRFL gp140 CF (HIV-1); assay: SPR, MAb on the surface, Env injected; JRFL wt DEG 5 (PNGase 5 U/µg)
[27] = target: JRFL gp140 (HIV-1); assay: SPR, MAb on the surface, Env injected; JRFFL wt (not deglycosylated); Koff (x10^-3 s-1)
[28] = target: deglycosylated JRFL gp140 CF (HIV-1); assay: SPR, MAb on the surface, Env injected; JRFL wt DEG 500 (PNGase 500 U/µg); Koff (x10^-3 s-1)
[29] = target: Jo 1; assay: Athena autoantigen assay, mAb 25 ug/ml
[30] = target: RNP; assay: Athena autoantigen assay, mAb 25 ug/ml
[31] = target: SSB; assay: Athena autoantigen assay, mAb 25 ug/ml
[32] = target: Sm; assay: Athena autoantigen assay, mAb 25 ug/ml
[33] = target: SSA; assay: Athena autoantigen assay, mAb 25 ug/ml
[34] = target: Scl 70; assay: Athena autoantigen assay, mAb 25 ug/ml
[35] = target: Histone; assay: Athena autoantigen assay, mAb 25 ug/ml
[36] = target: Influenza HA (Wisconsin) (influenza virus); assay: Luminex assay, antibody 50 µg/ml
[37] = target: HCV E2 (HCV); assay: Luminex assay, antibody 50 µg/ml
[38] = target: deglycosylated JRFL gp140 CF (HIV-1); assay: SPR, MAb on the surface, Env injected; JRFL wt DEG 500 (PNGase 500 U/µg); Kon (x10^3 M-1s-1)
[39] = target: deglycosylated JRFL gp140 CF (HIV-1); assay: SPR, MAb on the surface, Env injected; JRFL wt DEG 20 (PNGase 20 U/µg); Kon (x10^3 M-1s-1)
[40] = target: membrane conjugated gp41-inter; assay: SPR, gp41-inter held by Ni on liposomes captured on the chip, mAb injected; bivalent analyte fit [right panel]

SSB, sequence (P05455 whole entry): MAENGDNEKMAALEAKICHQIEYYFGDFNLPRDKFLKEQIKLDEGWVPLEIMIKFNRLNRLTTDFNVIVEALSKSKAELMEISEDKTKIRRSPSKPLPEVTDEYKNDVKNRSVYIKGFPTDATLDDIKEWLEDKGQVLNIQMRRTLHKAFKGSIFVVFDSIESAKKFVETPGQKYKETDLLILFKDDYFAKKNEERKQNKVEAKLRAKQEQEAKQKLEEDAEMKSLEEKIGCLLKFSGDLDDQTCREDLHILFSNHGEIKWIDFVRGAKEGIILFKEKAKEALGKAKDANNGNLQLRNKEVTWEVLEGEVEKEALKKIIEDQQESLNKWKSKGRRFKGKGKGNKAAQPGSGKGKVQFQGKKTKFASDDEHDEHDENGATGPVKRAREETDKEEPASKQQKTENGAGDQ
Jo 1, sequence (P12081 2-509): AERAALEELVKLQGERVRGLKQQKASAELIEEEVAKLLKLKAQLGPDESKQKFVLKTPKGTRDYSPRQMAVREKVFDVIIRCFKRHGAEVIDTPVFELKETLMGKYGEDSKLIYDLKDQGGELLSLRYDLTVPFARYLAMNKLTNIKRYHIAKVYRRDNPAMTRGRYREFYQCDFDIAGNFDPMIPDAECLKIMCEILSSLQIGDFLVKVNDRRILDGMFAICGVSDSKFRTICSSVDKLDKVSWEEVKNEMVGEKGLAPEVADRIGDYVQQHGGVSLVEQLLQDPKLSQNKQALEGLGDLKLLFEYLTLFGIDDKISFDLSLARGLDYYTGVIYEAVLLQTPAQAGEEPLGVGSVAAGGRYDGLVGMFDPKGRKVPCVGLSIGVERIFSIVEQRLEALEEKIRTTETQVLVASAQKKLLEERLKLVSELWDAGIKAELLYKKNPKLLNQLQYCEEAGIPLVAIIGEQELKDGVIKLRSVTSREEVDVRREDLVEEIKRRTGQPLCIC

## 4E10 (antibody)
[1]
  koff: 0.00099 s⁻¹
[2]
  kon: 7400 M⁻¹ s⁻¹
[3]
  Athena autoreactivity score: 156
[4]
  Athena autoreactivity score: 254
[5]
  Athena autoreactivity score: 306
[6]
  Athena autoreactivity score: 333
[7]
  koff: 0.001 s⁻¹
[8]
  Kd: 40 nM
[9]
  Kd: 50 nM
[10]
  kon: 600 M⁻¹ s⁻¹
[11]
  Athena autoreactivity score: 65
[12]
  Athena autoreactivity score: 6
[13]
  Athena autoreactivity score: 93
[14]
  Athena autoreactivity score: 4
[15]
  Athena autoreactivity score: 115
[16]
  Athena autoreactivity score: 2
[17]
  Athena autoreactivity score: 113
[18]
  Athena autoreactivity score: 87
[19]
  Athena autoreactivity score: 9
[20]
  Athena autoreactivity score: 124
[21]
  Athena autoreactivity score: 5
[22]
  Athena autoreactivity score: 169
[23]
  Athena autoreactivity score: 3
[24]
  Athena autoreactivity score: 160
[25]
  Kd: 2200 nM
[26]
  Kd: 135 nM
[27]
  koff: 0.0013 s⁻¹
[28]
  koff: 0.001 s⁻¹
[29]
  Athena autoreactivity score: 138
[30]
  Athena autoreactivity score: 15
[31]
  Athena autoreactivity score: 206
[32]
  Athena autoreactivity score: 7
[33]
  Athena autoreactivity score: 247
[34]
  Athena autoreactivity score: 4
[35]
  Athena autoreactivity score: 274
[36]
  background subtracted RFUs: 0 RFU
[37]
  background subtracted RFUs: 89.2 RFU
[38]
  kon: 21000 M⁻¹ s⁻¹
[39]
  kon: 27000 M⁻¹ s⁻¹
[40]
  Kd: 0.73 nM
  koff: 2.5e-05 s⁻¹
